Earlier results, collected in paper PMC12757075.
pKd: −log10 of the molar value.

Molecular target: actin filament barbed end (Oryctolagus cuniculus) (UniProt P68135)

pKd: 8.04
Substance: VASP (from UniProt P50552)
